Data published in US6884600B1, “Protein phosphatase-1 catalytic subunit interactions” (Medical Research Council London, priority 1996, dated 2005).
Read-outs that look alike come from different tables or passages of the source.

B1: M110-(D39-E309): rat aorta M110 fragment, residues 39-309, containing the seven ankyrin repeats (protein, UniProt Q10728 39-309, looked up, fragment)
chain: DDGAVFLAACSSGDTDEVLKLLHRGADINYANVDGLTALHQACIDDNVDMVKFLVENGANINQPDNEGWIPLHAAASCGYLDIAEFLIGQGAHVGAVNSEGDTPLDIAEEEAMEELLQNEVNRQGVDIEAARKEEERIMLRDARQWLNSGHISDVRHAKSGGTALHVAAAKGYTEVLKLLIQAGYDVNIKDYDGWTPLHAAAHWGKEEACRILVDNLCDMETVNKVGQTAFDVADEDILGYLEELQKKQNLLHSEKRDKKSPLIESTANME
B2: NIPP-1: nuclear inhibitor of PP1 (protein, UniProt Q12972 1-351, looked up)
Nuclear inhibitor of protein …: MAAAANSGSSLPLFDCPTWAGKPPPGLHLDVVKGDKLIEKLIIDEKKYYLFGRNPDLCDFTIDHQSCSRVHAALVYHKHLKRVFLIDLNSTHGTFLGHIRLEPHKPQQIPIDSTVSFGASTRAYTLREKPQTLPSAVKGDEKMGGEDDELKGLLGLPEEETELDNLTEFNTAHNKRISTLTIEEGNLDIQRPKRKRKNSRVTFSEDDEIINPEDVDPSVGRFRNMVQTAVVPVKKKRVEGPGSLGLEESGSRRMQNFAFSGGLYGGLPPTHSEAGSQPHGIHGTALIGGLPMPYPNLAPDVDLTPVVPSAVNMNPAPNPAVYNPEAVNEPKKKKYAKEAWPGKKPTPSLLI

Legend:
PP1c [1] = biological target: T1, PP1c (Oryctolagus cuniculus, UniProt P62143); test: Phosphorylase phosphatase activity of PP1c; format: biochemical, rabbit
T1 construct: from tissue; host or cells: rabbit skeletal muscle (PP1G dissociated with LiBr)
Experimental: (§1) A,B; Effects of M110-(M1-E309) (closed circles), M110-(M1-F38) (open circles) and M110-(D39-E309) (open triangles) on the MLC20 phosphatase […] and phosphorylase phosphatase (B) activities of PP1c were measured after incubating PP1c for 15 minutes at 30° C. with each fragment. The results are presented as a percentage of those obtained in experiments where the M110 fragments were omitted.
(§2) C,D; The effect of M110-(M1-A150) (open circles) and M110-(L24-Y496) (closed circles) on the MLC20 phosphatase (C) and phosphorylase phosphatase (D) activities of PP1c were measured as in A,B.
(B) The phosphorylase phosphatase activity of PP1c was assayed as in A in the presence or absence of 1 μM GM-(G63-T93) and 1.0 nM M110-(M1-E309). The results are presented (SEM for three experiments) as a percentage of the PP1c activity measured in the absence of GM-(63-T93), M110-(M1-F38) or M110-(M1-E309).
(§3) The myosin-associated form of PP1 (PP1M) was from chicken gizzard and the glycogen-associated form of PP1 (PP1G) from rabbit skeletal muscle. The β isoform of PP1c was released from PP1G by incubation for 2 hours in 2M LiBr, then purified by gel-filtration on a 30×1 cm column of Superose 12 (Pharmacia, Milton Keynes, U.K.) in the presence of 0.5M LiBr. Glycogen protein particles from rat liver were used as the source of hepatic PP1G Digoxygenin-labelled PP1c (γ1-isoform, hereafter termed PP1) was prepared as in [9]. GL was expressed in E. coli as a glutathione-S-transferase (GST) fusion protein [7], termed GST-GL. The catalytic subunit of PP2A from bovine heart (PP2AC) was provided by Dr R. MacKintosh in this Unit. The phosphorylatable myosin light chain (MLC20) and heavy meromyosin from chicken gizzard were a gift from Dr M. Ikebe (Case Western Reserve University, Cleveland, USA). Thrombin and benzamidine-Agarose were purchased from Sigma (Poole, UK).
(§4) ^32P-labelled rabbit skeletal muscle phosphorylase a (containing 1.0 mol phosphate per mol subunit) was prepared by phosphorylation with phosphorylase kinase, ^32P-labelled rabbit skeletal muscle glycogen synthase (containing 1.5 mol/mol subunit in the sites 3 region) was prepared by phosphorylation with glycogen synthase kinase-3 [24]). ^32P-labelled chicken gizzard MLC20 and ^32P-labelled chicken gizzard heavy meromyosin (containing 1.0 mol phosphate per mol subunit) were prepared by phosphorylation with smooth muscle myosin light chain kinase. The dephosphorylation of phosphorylase a (10 μM), glycogen synthase (1 μM) and MLC20 (1 μM) and heavy meromyosin (1 μM) was carried out as in [24]. One unit of activity (U) was that amount which released […] of phosphate in one minute.
(§5) PP1c was isolated from the rabbit skeletal muscle PP1-GM complex as described previously (Johnson et al, 1996). Glycogen particles isolated from rat liver (Schelling el al, 1988) served as the source of PP1-GL. The dephosphorylation of glycogen phosphorylase (10 μM) and the isolated MLC20 of smooth muscle myosin (1 μM) by PP1c was carried out as described previously (Cohen et al., 1988; Alessi et al., 1992).

PP1c [2] = biological target: T1, PP1c; test: MLC20 (myosin P-light chain) phosphatase activity of PP1c; format: biochemical
Experimental: as §1, §2
(A) The MLC20 phosphatase activity of PP1c was assayed after incubation for 15 minutes at 30° C. in the presence or absence of 1 μM GM-(G63-T93) and either 0.1 μM M110-(M1-F38) or 0.1 nM M110-(M1-E309).
(1-38, open circles) or M110[M1-K35] (1-35, closed circles) were incubated with PP1c for 15 min at 30° C. and reactions started with the ^32P-labelled MLC20 substrate. The results are expressed as a % of the activity determined in control incubations where the M110 peptides were omitted (100%). Similar results were obtained in three separate experiments.
as §3, §4, §5
^32P-labelled myosin P-light chains containing 1.0 mol phosphate per mol subunit was prepared by phosphorylation with smooth muscle myosin light chain kinase. The dephosphorylation of myosin P-light chain (1 μM) was carried out as in [4] and one unit of activity (U) was that amount which catalysed the release of 1 μmole of phosphate in one min. When assaying PP1M in immunoprecipitates from the myofibrillar extracts, the tubes were shaken continuously and 3 nM okadaic acid was included to inhibit any PP2A present.

PP1GL = test: Phosphorylase phosphatase activity of PP1GL (hepatic glycogen particles); format: biochemical, rat; details: hepatic glycogen particles containing PP1-GL
Experimental: Hepatic glycogen particles were diluted in assay buffer to 0.6 phosphorylase phosphatase (PhP) mU per ml, incubated for 15 minutes at 30° C. with GM-(G63-T93) (closed circles), GM-(G63-K80) (open circles) or GM-(G63-N75) (closed triangles) and assayed as described in Example 1. The open triangles show the effect of GM-(G63-N75) which had been phosphorylated at Ser67 by PKA (pGM-(G63-N75)). Similar results were obtained in four experiments.
(A) Hepatic glycogen protein particles containing PP1-GL were diluted and incubated for 15 min at 30° C. with the indicated concentrations of either M110[M1-F38] (open circles) or M110[M1-K35] (closed circles) and the phosphatase reactions were initiated by addition of ^32P-labelled glycogen phosphorylase. The results are expressed as a percentage of the activity determined in control incubations where the M110 peptides were omitted. Similar results were obtained in three separate experiments. (B) The experiment was carried out as in (A), except that the peptide GM[G63-N75] (“wild type”, WT) and variants in which either Val 66 (V66A) (closed triangles) or Phe 68 (F68A) (closed circles) were changed to Ala, were used instead of the M110 peptides. Similar results were obtained in three separate experiments.
The myosin-associated form of PP1 (PP1M) was from chicken gizzard and the glycogen-associated form of PP1 (PP1G) from rabbit skeletal muscle. […]

PP1 = details: Beullens et al., 1992; read-out: inhibitory constant for PP1; cited from earlier work

T1 sequence (P62143 whole entry): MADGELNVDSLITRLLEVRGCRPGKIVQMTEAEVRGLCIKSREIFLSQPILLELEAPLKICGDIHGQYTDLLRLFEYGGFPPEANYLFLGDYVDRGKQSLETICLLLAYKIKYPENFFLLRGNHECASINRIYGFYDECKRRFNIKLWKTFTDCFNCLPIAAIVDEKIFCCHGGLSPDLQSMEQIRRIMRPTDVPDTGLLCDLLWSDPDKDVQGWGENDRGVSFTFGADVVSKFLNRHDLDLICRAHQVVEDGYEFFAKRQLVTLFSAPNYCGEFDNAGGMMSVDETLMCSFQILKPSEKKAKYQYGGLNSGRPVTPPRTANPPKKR

Row | Molecule | effect on the phosphorylase phosphatase activity of PP1c (PP1c [1]) | effect on the phosphorylase phosphatase activity of PP1c (PP1c [1]; each peptide individually, at concentrations up to 1 μM) | effect on the MLC20 phosphatase activity of PP1c (PP1c [2]) | effect on the phosphorylase phosphatase activity of PP1GL (PP1GL) | Ki (PP1) [pM]
1 | B1 | did not inhibit the phosphorylase phosphatase activity of PP1c | no effect | failed to stimulate the MLC20 phosphatase activity of PP1c | can enhance the phosphorylase activity of PP1GL | –
2 | B2 | – | – | – | – | 1
